Results as given in US20250346660A1 (PARAGON THERAPEUTICS, published 2025).

Tests used:
[1] = biological target: T1, Recombinant Human IL-23 (human, UniProt Q9NPF7 20-189; P29460 23-328); assay: SPR (Biacore 8K), mAb captured on anti-human IgG, human IL-23 as analyte, 25 C, 1:1 model; below the limit of detection
T1 construct: Recombinant soluble cytokine; also called hIL-23
T1 sequence (looked up) 1: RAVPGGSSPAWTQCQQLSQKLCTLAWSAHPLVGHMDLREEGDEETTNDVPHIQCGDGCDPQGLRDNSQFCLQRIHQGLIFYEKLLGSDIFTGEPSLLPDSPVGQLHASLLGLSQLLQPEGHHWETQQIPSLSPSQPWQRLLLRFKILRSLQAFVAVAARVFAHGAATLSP
T1 sequence (looked up) 2: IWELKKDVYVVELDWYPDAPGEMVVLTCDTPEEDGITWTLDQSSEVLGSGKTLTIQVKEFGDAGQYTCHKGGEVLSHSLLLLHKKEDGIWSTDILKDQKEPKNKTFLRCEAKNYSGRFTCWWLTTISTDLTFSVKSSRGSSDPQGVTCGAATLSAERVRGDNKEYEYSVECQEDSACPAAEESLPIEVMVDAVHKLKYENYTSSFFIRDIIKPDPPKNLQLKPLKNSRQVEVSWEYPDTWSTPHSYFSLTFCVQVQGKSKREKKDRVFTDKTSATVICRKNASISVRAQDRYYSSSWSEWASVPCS
Protocol: (§1) Reference Antibody 1 was used as a comparator. […] Anti-IL23 mAb constructs (diluted to 2 μg/mL) were captured onto flow cell 2 (active) for 60 sec at a flow rate of 10 μL/min. Recombinant Human IL-23 was prepared at concentrations of 0, 1.23, 3.7, 11.11, 33.33, 100 nM and injected over flow cell 1 (reference) and flow cell 2 (active) for 180 sec at a flow rate of 50 μL/min. Samples were injected in a multi-cycle manner over freshly captured mAb, by regenerating the capture surfaces with injection of 10 mM glycine, pH 1.5 for 30 sec at a flow rate of 30 μL/min. A 1:1 kinetic binding model was utilized to determine the apparent association (kₐ) and dissociation […] rate constants. Their ratio provides the apparent equilibrium dissociation constant or affinity constant ([…]).

[2] = biological target: T1, Recombinant Human IL-23; assay: cell-based or functional assay
[3] = biological target: T1, Recombinant Human IL-23; assay: cell-based or functional assay; remark: listed apart in the source
[4] = biological target: T1, Recombinant Human IL-23; assay: SPR (Biacore 8K), mAb captured on anti-human IgG, human IL-23 as analyte, 25 C, 1:1 model
Protocol: as §1

[5] = biological target: T1, Recombinant Human IL-23; assay: SPR (Biacore 8K), mAb captured on goat anti-human IgG CM5 chip, human IL-23 as analyte, 25 C, 1:1 model
Protocol: as §1

[6] = biological target: T1, Recombinant Human IL-23; assay: cell-based or functional assay; remark: listed apart in the source

B1: IL-23 antibody clone 202 (antibody, human IgG1, kappa, L234A L235A, V domains shown)
VH: EVQLLESGGGLVQPGGSLRLSCAASGYTFTDQTIHWVRQAPGKGLEWIGYIYPRDDSPKYNENFKGRATLSADKSKNTAYLQMNSLRAEDTAVYYCAIPDRSGYAWFIYWGQGTTVTVSS
VL: EIVMTQSPATLSVSPGERATLSCKASRDVAIAVAWYQQKPGQAPRLLLYWASTRHTGIPARFSGSGSRTEFTLTISSLQSEDFAVYYCHQYSSYPFTFGGGTKVEIKR
notes: Full antibody format
koff [1]: < 1e-06 s⁻¹ | Relative IC50, inhibition of IL-23-induced release of IL-17 from human PBMCs [2]: 0.79 relative to Reference Antibody 1 | Relative IC50, inhibition of IL-23-induced activation of STAT3 (luciferase reporter, HEK 293F IL-23R+/IL-12Rb1+ cells) [3]: 0.76 relative to Reference Antibody 1 | kon [4]: 210000 M⁻¹ s⁻¹

B2: IL-23 antibody clone 203 (antibody, human IgG1, kappa, L234A L235A, V domains shown)
VH: EVQLLESGGGLVQPGGSLRLSCAASGYTFTDQTIHWVRQAPGKGLEWIGYIYPRDDSPKYNENFKGRATLSADKSKNTAYLQMNSLRAEDTAVYYCAIPDRSGYAWFIYWGQGTTVTVSS
VL: EIVMTQSPATLSVSPGERATLSCKASRDVAIAVAWYQQKPGQAPRLLLFWASTRHTGIPARFSGSGSRTEFTLTISSLQSEDFAVYYCHQYSSYPFTFGGGTKVEIKR
notes: Full antibody format
koff [1]: < 1e-06 s⁻¹ | Relative IC50, inhibition of IL-23-induced release of IL-17 from human PBMCs [2]: 0.78 relative to Reference Antibody 1 | Kd [5]: < 6 pM | Relative IC50, inhibition of IL-23-induced activation of STAT3 (luciferase reporter, HEK 293F IL-23R+/IL-12Rb1+ cells) [3]: 0.66 relative to Reference Antibody 1 | kon [4]: 271000 M⁻¹ s⁻¹

B3: Reference Antibody 1 (antibody, human IgG1, kappa, L234A L235A, V domains shown)
VH: QVQLVQSGAEVKKPGSSVKVSCKASGYTFTDQTIHWMRQAPGQGLEWIGYIYPRDDSPKYNENFKGKVTITADKSTSTAYMELSSLRSEDTAVYYCAIPDRSGYAWFIYWGQGTLVTVSS
VL: DIQMTQSPSSLSASVGDRVTITCKASRDVAIAVAWYQQKPGKVPKLLIYWASTRHTGVPSRFSGSGSRTDFTLTISSLQPEDVADYFCHQYSSYPFTFGSGTKLEIKR
notes: also called anti-human IL-23p19 antibody; parental antibody
koff [1]: < 1e-06 s⁻¹ | Relative IC50, inhibition of IL-23-induced release of IL-17 from human PBMCs [2]: 1 relative to Reference Antibody 1 | Relative IC50, inhibition of IL-23-induced phosphorylation of STAT3 in DB cells (pSTAT3 sandwich ELISA) [6]: 1 relative to Reference Antibody 1 | Relative IC50, inhibition of IL-23-induced activation of STAT3 (luciferase reporter, HEK 293F IL-23R+/IL-12Rb1+ cells) [3]: 1 relative to Reference Antibody 1 | kon [4]: 167000 M⁻¹ s⁻¹

B4: IL-23 antibody clone 107 (antibody, human IgG1, kappa, L234A L235A, V domains shown)
VH: QVQLVQSGAEVKKPGSSVKVSCKASGYTFTAQTIHWMRQAPGQGLEWIGYIYPRDDTPKYNPNFKGKVTITADKSTSTAYMELSSLRSEDTAVYYCAIPDRSGYAWFDYWGQGTLVTVSS
VL: DIQMTQSPSSLSASVGDRVTITCKASRDVAIAVAWYQQKPGKVPKLLIYWASTRHTGVPSRFSGSGSRTDFTLTISSLQPEDVADYFCHQYSSYPFTFGSGTKLEIKR
koff [1]: < 1e-06 s⁻¹ | Relative IC50, inhibition of IL-23-induced release of IL-17 from human PBMCs [2]: 0.67 relative to Reference Antibody 1 | Relative IC50, inhibition of IL-23-induced phosphorylation of STAT3 in DB cells (pSTAT3 sandwich ELISA) [6]: 0.51 relative to Reference Antibody 1 | Relative IC50, inhibition of IL-23-induced activation of STAT3 (luciferase reporter, HEK 293F IL-23R+/IL-12Rb1+ cells) [3]: 0.57 relative to Reference Antibody 1 | kon [4]: 187000 M⁻¹ s⁻¹
